These results are taken from the supplement of paper PMC9170038.

The subject of the series is MS2 coat protein. As to the kind of experiment: apparent KD of MS2 coat protein; designed switch direction (-1 OFF switch, 1 ON switch): -1; higher = weaker reporter binding. In a few lines: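 Designed RNA switches with common flanks were transcribed on Illumina chips by stalled E. coli RNA polymerase and titrated with SNAP-549-labelled MS2 coat protein, from 0.7 or 1.5 nM doubling to 3 µM, in Tris-HCl pH 7.5 buffer with KCl, MgCl2, BSA, DTT, tRNA and Tween-20. Steps lasted 0.8–1.5 h (lowest) to 10–20 min (highest). Titrations ran without input, with 200 uM small-molecule ligand, or with an oligonucleotide input. Normalised cluster fluorescence was curve-fitted, and apparent KD is the per-design median over clusters.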

Setting [1] is: input ligand: microRNA oligo, concentration not stated.
Where [2] appears, read: Eterna round: R95, input ligand: microRNA oligo, concentration not stated.
[3] abbreviates: Eterna round: R95, input ligand: FMN 200 uM.
The mark [4] stands for this setting: Eterna round: R95, input ligand: none.

Consider “CGAUGCUCGUGUCCACAUGAGGAUCACCCAUGUCGAGUUAGCGAGGAUAUCGGUAACACAUAGUACGAGAAGGCGCGAACCUGA [Ex NG3 #27] (Eterna round: R96, puzzle: Exclusion NG 3)”, for which the “apparent KD of MS2 coat protein” value (input ligand: FMN 200 uM) came out at 52.5 nM, the “apparent KD of MS2 coat protein” value under setting [1] turned out to be 14.6 nM and the “apparent KD of MS2 coat protein” value (input ligand: none) worked out at 17.3 nM.
As for “CGAUGUUAUGUCAGGAUAUGCGUUGCGAAAGCGAUGCAGAAGGGACAUGAGGAUCACCCAUGUCCUAACCAUCG [Omei A 7] (puzzle: Brourd's mod of Exclusion 4)”, under setting [2], the “apparent KD of MS2 coat protein” value came out at 10.7 nM.
On to “CGCACCACAUGAGGAUCAAACAUGAGGAUCACCCAUGUAUAACAAGCUUUUUGCUCGUCUUAUAAAUAUGUGGUGCG [Electric Eye 3 - Jieux - Sensor, turn-off variant 1] (Eterna round: R97, puzzle: Sensor, turn-off variant 1)”, for which the “apparent KD of MS2 coat protein” value was 13.9 nM (input ligand: FMN 200 uM) and 14.2 nM (input ligand: none).
For “CGCAUGUGAGGAUAUGUACUAGUUGAGCACAGUCAGCCAGAACAGAAGGCACAUGAGGAUCACCCAUGUGUACC [EX4 B.7] (Eterna round: R97, puzzle: Exclusion 4)”, in that order: 154 nM and 22.3 nM.
Consider “CGCCUGUUAGGAUAUUAGUAGUAGUCAGAAUAGACUAUUACUGAGAAGGGACAUGAGGAUCACCCAUGUUGGCG [Eli x4 4.12] (Eterna round: R97, puzzle: Exclusion 4)”, for which the “apparent KD of MS2 coat protein” value is 22.2 nM (input ligand: FMN 200 uM) and 18.8 nM (input ligand: none).
For the sequence “CGCGCGCGUGUAGGAUAUGUGUUUGGUUCGGGCGCAGAAGGACAUGAGGAUCACCCAUGUGUGUGUGUGCGCGCAGUGUGUGCG [-30, -27 kcal, 15% A] (Eterna round: R96, puzzle: Exclusion NG 1)”, the “apparent KD of MS2 coat protein” value is, setting by setting: (input ligand: FMN 200 uM) 55 nM; under setting [1], 32.7 nM; (input ligand: none) 41.7 nM.
For “CGCUAAGCUAUGCUCGUCAACAUGAGGAUCACCCAUGUGCACUACGGAAGGUACACAACGUACCAAAGACCUCAAAG [Eternabot (Original) Solution 27] (Eterna round: R97, puzzle: Sensor, turn-off variant 1)”, the “apparent KD of MS2 coat protein” value stood at 185 nM (input ligand: FMN 200 uM) and 119 nM (input ligand: none).
Take “CGCUGGACAGGAUAUGUUCUUGGGCACUUGAGGAUCACCCAAGUCAUCAAGAAAUCAGGCACAGAAGGGUUUAUGG [salish99_ex5_r4_021] (Eterna round: R97, puzzle: Exclusion 5)”: the “apparent KD of MS2 coat protein” value runs as follows: (input ligand: FMN 200 uM) 18.7 nM; (input ligand: none) 19.9 nM.
As to “CGGAAAUCCUAGGAUAUGCUAGACGAAAGUCUAGCAGAAGGAGGAACAUGAGGAUCACCCAUGUGUCCUAUCCG [Mat - Exclusion 6 - Eli Mod - D16] (Eterna round: R97, puzzle: Exclusion 6)”, the “apparent KD of MS2 coat protein” value (input ligand: FMN 200 uM) was determined as 26 nM and the “apparent KD of MS2 coat protein” value (input ligand: none) was found to be 17.1 nM.
Regarding “CGGAGCGUGGGUAGGUGCAACAUGAGGAUCACCCAUGUCUCACAAGCUUUUUGCUCAUCUUAUUGUACCUUGGUGCU [Sensor v3, turn-off variant 1 (MOD of JL v.2)] (puzzle: Sensor v3, turn-off variant 1)”, the “apparent KD of MS2 coat protein” value runs as follows: under setting [3], 130 nM; under setting [2], 12.3 nM; under setting [4], 146 nM.
On to “CGGAUACAUGAGGAUCACCCAUGUGAGGAUAUCGUACGUUCGUCGAAAGACGAUCGUACGAGAAGGCAUGACCG [Eli x1 4.36] (Eterna round: R97, puzzle: Exclusion 1)”, for which the “apparent KD of MS2 coat protein” value was 64 nM (input ligand: FMN 200 uM) and 113 nM (input ligand: none).
In the case of “CGGAUGUGAGGAUAUACAUGAGGAUCACCCAUGUGAGCCAGCUAGCUGACUGGCUCAUGUAGAAGGCACGUCUG [JL-ex3-2.15 Brourd mod] (puzzle: Exclusion 3)”, the “apparent KD of MS2 coat protein” value under setting [2] was 42.2 nM.
With “CGGCCGCAAGUCAGGAUAUGGACCUGCUUGGAGGACCAGAAGGGACAUGAGGAUCACCCAUGUGAUGAAAUAAA [BmEX4 A.24] (Eterna round: R97, puzzle: Brourd's mod of Exclusion 4)”, the “apparent KD of MS2 coat protein” value runs as follows: (input ligand: FMN 200 uM) 37.8 nM; (input ligand: none) 28.3 nM.
Turning to “CGGCUGUGAGGAUAUGCCAGGCCGGGCACUCCGCCGCCAGCGCAGAAGGCACAUGAGGAUCACCCAUGUCAAAG [Eternabot (L2) Solution 82] (Eterna round: R97, puzzle: Exclusion 4)”, the “apparent KD of MS2 coat protein” value (input ligand: FMN 200 uM) came to 27.5 nM and the “apparent KD of MS2 coat protein” value (input ligand: none) stood at 23.9 nM.
Take “CGUACUGAAGUGAGGAUAUUGUCUCGGAUACGAAACAAGAAGGCACAUGAGGAUCACCCAUGUAGACAGUACGA [Malc #30 mod 2] (puzzle: Brourd's mod of Exclusion 4)”: the “apparent KD of MS2 coat protein” value runs as follows: under setting [3], 15.1 nM; under setting [2], 17.3 nM; under setting [4], 15.7 nM.
Consider “CGUAUCUUUCACGUGAGUAGUGGGUGCAACAGGUGGGUUACAUGAGGAUCACCCAUGUACUCACUUGCUCGUCUUAU [Grok-var2-06] (puzzle: Sensor v3, turn-off variant 2)”, for which the “apparent KD of MS2 coat protein” value was 38 nM under setting [3], 23.4 nM under setting [2] and 34.3 nM under setting [4].
Turning to “CGUCAGUCAGGAUAUACUUACGUAGACAUGAGGAUCACCCAUGUGACGUGGGACUGGUGAGUAGAAGGGACGAACA [EX5 #76] (Eterna round: R97, puzzle: Exclusion 5)”, the “apparent KD of MS2 coat protein” value was found to be 27.3 nM (input ligand: FMN 200 uM) and 18.1 nM (input ligand: none).
In the case of “CGUCCACAUGAGGAUCACCCAUGUUAGGAUAUAAACGCCGUAGUCCAAGGACGGGCCUUUAGAAGGAGCGCGGG [Onaredgeso] (puzzle: Exclusion 1)”, the “apparent KD of MS2 coat protein” value under setting [2] came out at 12.3 nM.
As for “CGUCUGUAAGGAUAUGGUUACAUAGACAUGAGGAUCACCCAUGUGACGUGGGACUAGUGAUUAGAAGGUACGAACG [EX5 #66] (Eterna round: R97, puzzle: Exclusion 5)”, the “apparent KD of MS2 coat protein” value runs as follows: (input ligand: FMN 200 uM) 77 nM; (input ligand: none) 78.6 nM.
In the case of “CGUCUGUCAGGAUAUACUUACGUAGACAUGAGGAUCACCCAUGUGACGUGGGACUAGUGAGUAGAAGGGACGAACA [EX5 #74] (Eterna round: R97, puzzle: Exclusion 5)”, the “apparent KD of MS2 coat protein” value reads like this: (input ligand: FMN 200 uM) 68.4 nM; (input ligand: none) 46.7 nM.
For “CGUCUGUGAGGAUAUGGUAUCGUUUACAUGAGGAUCACCCAUGUUACAUGGGACUAGAGACUAGAAGGUACGAACG [EX5 #49] (Eterna round: R97, puzzle: Exclusion 5)” the same measures were 212 nM and 320 nM.
“CGUGCGUAUGUGAGGAUAUGCUGGUCCUUGGAUCGGCAGAAGGCACAUGAGGAUCACCCAUGUGGUGUCGUACC [salish99_Bmod_ex4_074] (puzzle: Brourd's mod of Exclusion 4)”: the “apparent KD of MS2 coat protein” value under setting [2] came to 123 nM.
For “CGUGCGUAUGUGAGGAUAUGCUGGUCCUUGGAUCGGCAGAAGGCACAUGAGGAUCACCCAUGUGGUGUCGUACU [salish99_Bmod_ex4_081] (puzzle: Brourd's mod of Exclusion 4)”, the “apparent KD of MS2 coat protein” value under setting [2] worked out at 216 nM.
Turning to “CGUGCGUAUGUGAGGAUAUGCUGGUCCUUGGAUCGGCAGAAGGCACAUGAGGAUCACCCAUGUGGUGUCGUUCG [salish99_Bmod_ex4_093] (puzzle: Brourd's mod of Exclusion 4)”, the “apparent KD of MS2 coat protein” value under setting [2] was found to be 126 nM.
For the sequence “CGUGUAGGAGUAGGAUAUGCGUCUAGACUACGAGCAGAAGGACUCCAGGACUUGAGGAUCACCCAAGUGCGUCCCGAGCCGUAG [Mutated MS2 EX1.23] (Eterna round: R96, puzzle: Exclusion NG 1)”, the “apparent KD of MS2 coat protein” value amounted to 11.9 nM (input ligand: FMN 200 uM), 11.7 nM under setting [1] and 12 nM (input ligand: none).
As to “CUAAAUCAUGUAGGAUAUGCAUAGCGAAGCUAUGCAGAAGGACAUGAGGAUCACCCAUGUUCUUCCGUCUGAGAACAGACGGAA [Mat - Exclusion NG 1 - Mod of JL - D32] (Eterna round: R96, puzzle: Exclusion NG 1)”, the “apparent KD of MS2 coat protein” value was 164 nM (input ligand: FMN 200 uM), 21.1 nM under setting [1] and 32.5 nM (input ligand: none).
As for “CUAAAUCAUGUAGGAUAUGCAUAGCGAAGCUAUGCAGAAGGACAUGAGGAUCACCCAUGUUCUUCCGUCUGAGUACAGACGGAA [Mat - Exclusion NG 1 - Mod of JL - D31] (Eterna round: R96, puzzle: Exclusion NG 1)”, the “apparent KD of MS2 coat protein” value by setting is: (input ligand: FMN 200 uM) 288 nM; under setting [1], 30.6 nM; (input ligand: none) 34.1 nM.
In the case of “CUAACAUGCUGGUGAUCAUACAUGAGGAUCACCCAUGUAACAAGCUUUUUGCUCGUCUUAUAAGAUUACUAGUAUGU [Stov1/10-A4] (Eterna round: R97, puzzle: Sensor, turn-off variant 1)”, the “apparent KD of MS2 coat protein” value (input ligand: FMN 200 uM) came out at 21.4 nM and the “apparent KD of MS2 coat protein” value (input ligand: none) stood at 21.9 nM.
Consider “CUAACAUGCUGGUGAUCAUACAUGAGGAUCACCCAUGUAACAAGCUUUUUGUUCGUCUUAUAAGAUCACCAGCAUGU [Stov1/9-B3] (Eterna round: R97, puzzle: Sensor, turn-off variant 1)”, for which the “apparent KD of MS2 coat protein” value by setting is: (input ligand: FMN 200 uM) 13.8 nM; (input ligand: none) 18.2 nM.
As to “CUAAUACAUCAGGAUAUGUGUCGUGAUAGCGACACAGAAGGGAUGACAUGAGGAUCACCCAUGUCAAAGGGUGA [eternacac ex6r4 sub23] (Eterna round: R97, puzzle: Exclusion 6)”, the “apparent KD of MS2 coat protein” value (input ligand: FMN 200 uM) is 388 nM and the “apparent KD of MS2 coat protein” value (input ligand: none) came out at 519 nM.
As for “CUAAUAGCAGCAGGAUAUCUCACAUGAGGAUCACCCAUGUGGGACCGCCACCUCGUGUGUAAAGAAGAGAAGGGCUCGCACUCC [Eternabot solution 6] (Eterna round: R96, puzzle: Exclusion NG 2)”, the “apparent KD of MS2 coat protein” value is 37.6 nM (input ligand: FMN 200 uM), 12.8 nM under setting [1] and 26.1 nM (input ligand: none).
